Data published in the supplement of paper PMC10724198.
± gives the standard deviation of the averaged measurements.

Tested on: Saccharomyces cerevisiae
Experiment: protein stability index of tFT-peptide fusion (C-terminal peptide) (PSI (0-1 scale)); higher = more stable (slower turnover)
Conditions: genetic background: wild type; temperature: 30 C
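Also: PSI is a weighted mean of sequencing reads over stability bins, variants kept only with over 10 reads, mCherry proximal and sfGFP distal, peptide attached via GGGS linker.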

Sequence	protein stability index
GFVRTVWLMCYV	0.245 ± 0.032
GFWLAFLWYRES	0.4406 ± 0.0022
GGAVGVRGGCRG	0.452 ± 0.033
GGCILYFCMSIV	0.4 ± 0.026
GGGSRICIVRLS	0.337 ± 0.077
GGGVRWGVLVLG	0.474 ± 0.011
GGLGIVWLWLVV	0.378 ± 0.047
GGLRILLRLVWT	0.454 ± 0.025
GGWVIVFMVGRG	0.427 ± 0.02
GIALYVCFICVG	0.245 ± 0.05
GIIRVSSQVIVR	0.523 ± 0.035
GLCLMICVLCFV	0.299 ± 0.0039
GLCSFPCSSCRL	0.756 ± 0.052
GLCVGRMFVRQI	0.454 ± 0.011
GLFWWVWAGFFC	0.436 ± 0.011
GLGFFMSFCFFL	0.484 ± 0.036
GLLAWGCVFWVV	0.259 ± 0.014
GLLGRSRLIFYN	0.517 ± 0.088
GLVAGVYVGSGL	0.701 ± 0.02
GMCRVELIATCG	0.307 ± 0.031

Sequence	protein stability index
GMGYISVVVWSH	0.208 ± 0.0092
GQLKGKDETEKK	0.191 ± 0.021
GRHRRYLLLPVH	0.419 ± 0.015
GRSVLIGLIVRC	0.4701 ± 0.0034
GTLSSSLIKSCA	0.52 ± 0.057
GTVRGDLSLWLC	0.349 ± 0.11
GVGTFRLCVLLV	0.197 ± 0.02
GVQVIWGWARVF	0.0923 ± 0.032
GVVVWWCYFVFV	0.257 ± 0.03
GWLFTFTCAFRV	0.479 ± 0.058
GWRVWVQIIWGR	0.352 ± 0.028
GYGAVHWWFWLF	0.31 ± 0.027
GYVCVGLVYSVA	0.337 ± 0.072
HCINYGRIQFCA	0.388 ± 0.051
HEVHATVPNQIM	0.697 ± 0.011
HFRFSRYIRWVL	0.237 ± 0.013
HFSCLLIILGFC	0.331 ± 0.026
HIVWVLQRAFRG	0.509 ± 0.039
HLCVLWVLLLCF	0.333 ± 0.011
HLFDMFFFLLHV	0.441 ± 0.027

Sequence	protein stability index
HLGAAVYVFSVL	0.477 ± 0.006
HMSAISLIGALA	0.519 ± 0.029
HNLYCKILQLCV	0.446 ± 0.0057
HPPRSLTLASSS	0.127 ± 0.029
HRCLFPLEYLLI	0.473 ± 0.052
HSLLLWLLVFFR	0.413 ± 0.036
HSVPPYPTPPPF	0.463 ± 0.002
HVLLSSSASIVV	0.536 ± 0.058
HYATLMSLRKVL	0.27 ± 0.047
IAYCDNGFLVVV	0.521 ± 0.077
IDTSRAATLLPA	0.739 ± 0.012
IFWAKRNLVRVT	0.363 ± 0.028
IGKEKRMKVIQI	0.516 ± 0.065
IKKKRNKKKMIM	0.505 ± 0.042
IKPSVHILIRTL	0.21 ± 0.0069
ILGDPHLALIFP	0.703 ± 0.022
ILVYFQAHAIKI	0.129 ± 0.0092
ISARPFLYSFRP	0.0266 ± 0.038
ISFSLALSVSFS	0.49 ± 0.0052
ISLSCRSFFCLS	0.507 ± 0.027

Tested on: Saccharomyces cerevisiae
Experiment: as above
Conditions: genetic background: cdc34-1; temperature: 37 C
Method: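 MPS profiling in S. cerevisiae of the tFT-X12 degron library: putative degron peptides plus stable controls, 12 aa, fused to the C-terminus of a sfGFP-mCherry timer. Cells are FACS-sorted into 8 mCherry/sfGFP bins and deep-sequenced. PSI runs from 0 (unstable) to 1 (stable). Backgrounds are wild type, das1Δ and doa10Δ at 30 °C, and wild type, das1Δ, cdc34-1 and cdc53-1 at 37 °C; 2-3 technical replicates each.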

Sequence	protein stability index
GFVRTVWLMCYV	0.286 ± 0.027
GFWLAFLWYRES	0.386 ± 0.067
GGAVGVRGGCRG	0.565 ± 0.12
GGCILYFCMSIV	0.411 ± 0.021
GGGSRICIVRLS	0.654 ± 0.092
GGGVRWGVLVLG	0.527 ± 0.007
GGLGIVWLWLVV	0.344 ± 0.021
GGLRILLRLVWT	0.471 ± 0.052
GGWVIVFMVGRG	0.523 ± 0.049
GIALYVCFICVG	0.213 ± 0.0051
GIIRVSSQVIVR	0.565 ± 0.0072
GLCLMICVLCFV	0.207 ± 0.0085
GLCSFPCSSCRL	0.875 ± 0.023
GLCVGRMFVRQI	0.6614 ± 0.0031
GLFWWVWAGFFC	0.7005 ± 0.0052
GLGFFMSFCFFL	0.554 ± 0.015
GLLAWGCVFWVV	0.402 ± 0.037
GLLGRSRLIFYN	0.721 ± 0.026
GLVAGVYVGSGL	0.7099 ± 0.0059
GMCRVELIATCG	0.368 ± 0.039

Sequence	protein stability index
GMGYISVVVWSH	0.0293 ± 0.0072
GQLKGKDETEKK	0.7023 ± 0.005
GRHRRYLLLPVH	0.487 ± 0.029
GRSVLIGLIVRC	0.417 ± 0.015
GTLSSSLIKSCA	0.602 ± 0.036
GTVRGDLSLWLC	0.622 ± 0.047
GVGTFRLCVLLV	0.233 ± 0.004
GVQVIWGWARVF	0.51 ± 0.14
GVVVWWCYFVFV	0.181 ± 0.012
GWLFTFTCAFRV	0.429 ± 0.01
GWRVWVQIIWGR	0.316 ± 0.013
GYGAVHWWFWLF	0.604 ± 0.052
GYVCVGLVYSVA	0.372 ± 0.041
HCINYGRIQFCA	0.596 ± 0.028
HEVHATVPNQIM	0.688 ± 0.026
HFRFSRYIRWVL	0.619 ± 0.08
HFSCLLIILGFC	0.275 ± 0.01
HIVWVLQRAFRG	0.511 ± 0.058
HLCVLWVLLLCF	0.286 ± 0.032
HLFDMFFFLLHV	0.514 ± 0.047

Sequence	protein stability index
HLGAAVYVFSVL	0.664 ± 0.086
HMSAISLIGALA	0.595 ± 0.051
HNLYCKILQLCV	0.419 ± 0.013
HPPRSLTLASSS	0.696 ± 0.039
HRCLFPLEYLLI	0.613 ± 0.055
HSLLLWLLVFFR	0.441 ± 0.013
HSVPPYPTPPPF	0.668 ± 0.054
HVLLSSSASIVV	0.623 ± 0.015
HYATLMSLRKVL	0.6682 ± 0.0023
IAYCDNGFLVVV	0.636 ± 0.037
IDTSRAATLLPA	0.675 ± 0.021
IFWAKRNLVRVT	0.382 ± 0.0086
IGKEKRMKVIQI	0.65 ± 0.025
IKKKRNKKKMIM	0.653 ± 0.093
IKPSVHILIRTL	0.544 ± 0.019
ILGDPHLALIFP	0.689 ± 0.02
ILVYFQAHAIKI	0.1592 ± 0.00018
ISARPFLYSFRP	0.683 ± 0.01
ISFSLALSVSFS	0.5219 ± 0.0035
ISLSCRSFFCLS	0.61 ± 0.033

Same assay, conditions: genetic background: cdc53-1; temperature: 37 C

Sequence	protein stability index
GFVRTVWLMCYV	0.341 ± 0.017
GFWLAFLWYRES	0.507 ± 0.021
GGAVGVRGGCRG	0.7112 ± 0.0027
GGCILYFCMSIV	0.492 ± 0.0065
GGGSRICIVRLS	0.7229 ± 0.0024
GGGVRWGVLVLG	0.606 ± 0.032
GGLGIVWLWLVV	0.42 ± 0.024
GGLRILLRLVWT	0.47 ± 0.014
GGWVIVFMVGRG	0.629 ± 0.084
GIALYVCFICVG	0.364 ± 0.013
GIIRVSSQVIVR	0.607 ± 0.018
GLCLMICVLCFV	0.315 ± 0.023
GLCSFPCSSCRL	0.8868 ± 0.0025
GLCVGRMFVRQI	0.7126 ± 0.0054
GLFWWVWAGFFC	0.7681 ± 0.0013
GLGFFMSFCFFL	0.579 ± 0.031
GLLAWGCVFWVV	0.52 ± 0.01
GLLGRSRLIFYN	0.8063 ± 0.0023
GLVAGVYVGSGL	0.759 ± 0.011
GMCRVELIATCG	0.409 ± 0.018

Sequence	protein stability index
GMGYISVVVWSH	0.1 ± 0.029
GQLKGKDETEKK	0.749 ± 0.027
GRHRRYLLLPVH	0.5232 ± 0.0027
GRSVLIGLIVRC	0.433 ± 0.014
GTLSSSLIKSCA	0.616 ± 0.017
GTVRGDLSLWLC	0.745 ± 0.0076
GVGTFRLCVLLV	0.2473 ± 0.0021
GVQVIWGWARVF	0.595 ± 0.019
GVVVWWCYFVFV	0.298 ± 0.034
GWLFTFTCAFRV	0.441 ± 0.014
GWRVWVQIIWGR	0.409 ± 0.0041
GYGAVHWWFWLF	0.6675 ± 0.0043
GYVCVGLVYSVA	0.411 ± 0.017
HCINYGRIQFCA	0.71 ± 0.05
HEVHATVPNQIM	0.7487 ± 0.0024
HFRFSRYIRWVL	0.7004 ± 0.0021
HFSCLLIILGFC	0.395 ± 0.078
HIVWVLQRAFRG	0.516 ± 0.0086
HLCVLWVLLLCF	0.323 ± 0.0031
HLFDMFFFLLHV	0.5932 ± 0.0025

Sequence	protein stability index
HLGAAVYVFSVL	0.707 ± 0.019
HMSAISLIGALA	0.575 ± 0.04
HNLYCKILQLCV	0.49 ± 0.12
HPPRSLTLASSS	0.75 ± 0.014
HRCLFPLEYLLI	0.72 ± 0.015
HSLLLWLLVFFR	0.511 ± 0.01
HSVPPYPTPPPF	0.739 ± 0.0011
HVLLSSSASIVV	0.6613 ± 0.0046
HYATLMSLRKVL	0.716 ± 0.036
IAYCDNGFLVVV	0.676 ± 0.028
IDTSRAATLLPA	0.7136 ± 0.0016
IFWAKRNLVRVT	0.421 ± 0.011
IGKEKRMKVIQI	0.69 ± 0.022
IKKKRNKKKMIM	0.727 ± 0.011
IKPSVHILIRTL	0.57 ± 0.017
ILGDPHLALIFP	0.757 ± 0.012
ILVYFQAHAIKI	0.189 ± 0.015
ISARPFLYSFRP	0.7515 ± 0.0074
ISFSLALSVSFS	0.532 ± 0.014
ISLSCRSFFCLS	0.68 ± 0.011

Same assay, conditions: genetic background: das1 deletion; temperature: 30 C

Sequence	protein stability index
GFVRTVWLMCYV	0.285 ± 0.025
GFWLAFLWYRES	0.34 ± 0.035
GGAVGVRGGCRG	0.496 ± 0.017
GGCILYFCMSIV	0.387 ± 0.029
GGGSRICIVRLS	0.636 ± 0.017
GGGVRWGVLVLG	0.4 ± 0.035
GGLGIVWLWLVV	0.307 ± 0.033
GGLRILLRLVWT	0.377 ± 0.033
GGWVIVFMVGRG	0.362 ± 0.033
GIALYVCFICVG	0.253 ± 0.017
GIIRVSSQVIVR	0.445 ± 0.026
GLCLMICVLCFV	0.244 ± 0.027
GLCSFPCSSCRL	0.76 ± 0.018
GLCVGRMFVRQI	0.661 ± 0.018
GLFWWVWAGFFC	0.583 ± 0.023
GLGFFMSFCFFL	0.477 ± 0.06
GLLAWGCVFWVV	0.336 ± 0.048
GLLGRSRLIFYN	0.661 ± 0.013
GLVAGVYVGSGL	0.629 ± 0.036
GMCRVELIATCG	0.276 ± 0.036

Sequence	protein stability index
GMGYISVVVWSH	0.141 ± 0.046
GQLKGKDETEKK	0.616 ± 0.023
GRHRRYLLLPVH	0.369 ± 0.028
GRSVLIGLIVRC	0.332 ± 0.048
GTLSSSLIKSCA	0.488 ± 0.027
GTVRGDLSLWLC	0.681 ± 0.0076
GVGTFRLCVLLV	0.273 ± 0.029
GVQVIWGWARVF	0.507 ± 0.042
GVVVWWCYFVFV	0.183 ± 0.031
GWLFTFTCAFRV	0.443 ± 0.027
GWRVWVQIIWGR	0.293 ± 0.027
GYGAVHWWFWLF	0.587 ± 0.04
GYVCVGLVYSVA	0.267 ± 0.038
HCINYGRIQFCA	0.596 ± 0.013
HEVHATVPNQIM	0.638 ± 0.01
HFRFSRYIRWVL	0.653 ± 0.02
HFSCLLIILGFC	0.268 ± 0.04
HIVWVLQRAFRG	0.493 ± 0.021
HLCVLWVLLLCF	0.26 ± 0.025
HLFDMFFFLLHV	0.488 ± 0.022

Sequence	protein stability index
HLGAAVYVFSVL	0.551 ± 0.0072
HMSAISLIGALA	0.436 ± 0.06
HNLYCKILQLCV	0.304 ± 0.049
HPPRSLTLASSS	0.661 ± 0.012
HRCLFPLEYLLI	0.551 ± 0.021
HSLLLWLLVFFR	0.388 ± 0.027
HSVPPYPTPPPF	0.337 ± 0.041
HVLLSSSASIVV	0.534 ± 0.019
HYATLMSLRKVL	0.64 ± 0.022
IAYCDNGFLVVV	0.548 ± 0.023
IDTSRAATLLPA	0.606 ± 0.017
IFWAKRNLVRVT	0.307 ± 0.029
IGKEKRMKVIQI	0.624 ± 0.018
IKKKRNKKKMIM	0.655 ± 0.026
IKPSVHILIRTL	0.446 ± 0.046
ILGDPHLALIFP	0.657 ± 0.026
ILVYFQAHAIKI	0.0937 ± 0.022
ISARPFLYSFRP	0.643 ± 0.034
ISFSLALSVSFS	0.502 ± 0.015
ISLSCRSFFCLS	0.574 ± 0.018
